Assay results reported in the supplement of paper PMC11246515.
± gives the standard deviation of the averaged measurements.

Experiment: total protein half-life in vivo (active degradation + dilution); higher = more stable protein
[1] = E. coli NCM3722 delta-clpP, growth: N-lim chemostat, doubling time 6 h
[2] = E. coli NCM3722 delta-hslV, growth: N-lim chemostat, doubling time 6 h
[3] = E. coli NCM3722 delta-smpB, growth: N-lim chemostat, doubling time 6 h
[4] = wild type E. coli NCM3722, growth: C-lim chemostat, doubling time 12 h
[5] = wild type E. coli NCM3722, growth: N-lim chemostat, doubling time 12 h
[6] = wild type E. coli NCM3722, growth: P-lim chemostat, doubling time 6 h
[7] = wild type E. coli NCM3722, growth: P-lim chemostat, doubling time 12 h
[8] = E. coli NCM3722 delta-clpP delta-lon delta-hslV, growth: N-lim chemostat, doubling time 6 h
[9] = E. coli NCM3722 delta-lon, growth: N-lim chemostat, doubling time 6 h
[10] = wild type E. coli NCM3722, growth: C-lim chemostat, doubling time 3 h
[11] = wild type E. coli NCM3722, growth: C-lim chemostat, doubling time 6 h
[12] = wild type E. coli NCM3722, growth: N-lim chemostat, doubling time 6 h

Sequence | total protein half-life in vivo [1] [h] | total protein half-life in vivo [2] [h] | total protein half-life in vivo [3] [h] | total protein half-life in vivo [4] [h] | total protein half-life in vivo [5] [h] | total protein half-life in vivo [6] [h] | total protein half-life in vivo [7] [h] | total protein half-life in vivo [8] [h] | total protein half-life in vivo [9] [h] | total protein half-life in vivo [10] [h] | total protein half-life in vivo [11] [h] | total protein half-life in vivo [12] [h]
MNMTKGALILSLSFLLAACSSIPQNIKGNNQPDIQKSFVAVHNQPGLYVGQQARFGGKVINVINGKTDTLLEISVLPLDSYAKPDIEANYQGRLLARQSGFLDPVNYRNHFVTILGTIQGEQPGFINKVPYNFLEVNMQGIQVWHLREVVNTTYNLWDYGYGAFWPEPGWGAPYYTNAVSQVTPELVK | 6.72 ± 0.84 | 6.43 ± 0.72 | 6.62 ± 0.25 | 14.6 | 12.8 ± 0.086 | 5.75 ± 0.59 | 12.6 ± 1 | – | – | – | – | –
MNNEPLRPDPDRLLEQTAAPHRGKLKVFFGACAGVGKTWAMLAEAQRLRAQGLDIVVGVVETHGRKDTAAMLEGLAVLPLKRQAYRGRHISEFDLDAALARRPALILMDELAHSNAPGSRHPKRWQDIEELLEAGIDVFTTVNVQHLESLNDVVSGVTGIQVRETVPDPFFDAADDVVLVDLPPDDLRQRLKEGKVYIAGQAERAIEHFFRKGNLIALRELALRRTADRVDEQMRAWRGHPGEEKVWHTRDAILLCIGHNTGSEKLVRAAARLASRLGSVWHAVYVETPALHRLPEKKRRAILSALRLAQELGAETATLSDPAEEKAVVRYAREHNLGKIILGRPASRRWWRRETFADRLARIAPDLDQVLVALDEPPARTINNAPDNRSFKDKWRVQIQGCVVAAALCAVITLIAMQWLMAFDAANLVMLYLLGVVVVALFYGRWPSVVATVINVVSFDLFFIAPRGTLAVSDVQYLLTFAVMLTVGLVIGNLTAGVRYQARVARYREQRTRHLYEMSKALAVGRSPQDIAATSEQFIASTFHARSQVLLPDDNGKLQPLTHPQGMTPWDDAIAQWSFDKGLPAGAGTDTLPGVPYQILPLKSGEKTYGLVVVEPGNLRQLMIPEQQRLLETFTLLVANALERLTLTASEEQARMASEREQIRNALLAALSHDLRTPLTVLFGQAEILTLDLASEGSPHARQASEIRQHVLNTTRLVNNLLDMARIQSGGFNLKKEWLTLEEVVGSALQMLEPGLSSPINLSLPEPLTLIHVDGPLFERVLINLLENAVKYAGAQAEIGIDAHVEGENLQLDVWDNGPGLPPGQEQTIFDKFARGNKESAVPGVGLGLAICRAIVDVHGGTITAFNRPEGGACFRVTLPQQTAPELEEFHEDM | 6.31 ± 0.4 | 6.32 ± 0.48 | 5.88 ± 0.37 | 12.1 ± 1 | 10.7 ± 0.66 | 6.348 ± 0.059 | 11.6 ± 0.51 | 6.66 ± 0.19 | 5.21 ± 0.13 | 3.44 ± 0.035 | 6 ± 0.74 | 5.56 ± 0.21
MNNHATVQSSAPVSAAPLLQVSGALIAIIALILAAAWLVKRLGFAPKRTGVNGLKISASASLGARERVVVVDVEDARLVLGVTAGQINLLHKLPPSAPTEEIPQTDFQSVMKNLLKRSGRS | – | – | – | 8.29 | 1.64 | – | – | > 8 | – | > 4 | – | –
MNNIAPQSPVMRRLTLQDNPAIARVIRQVSAEYGLTADKGYTVADPNLDELYQVYSQPGHAYWVVEYEGEVVGGGGIAPLTGSESDICELQKMYFLPAIRGKGLAKKLALMAMEQAREMGFKRCYLETTAFLKEAIALYEHLGFEHIDYALGCTGHVDCEVRMLREL | 3.93 ± 0.64 | 3.54 ± 0.28 | 3.89 ± 0.23 | 6.43 ± 0.74 | 7.32 ± 0.57 | 5 ± 0.34 | 10.6 ± 2.3 | 4.53 ± 0.45 | 3.77 ± 0.61 | 2.95 ± 0.76 | 5.11 ± 0.59 | 4.37 ± 0.26
MNNIWWQTKGQGNVHLVLLHGWGLNAEVWRCIDEELSSHFTLHLVDLPGFGRSRGFGALSLADMAEAVLQQAPDKAIWLGWSLGGLVASQIALTHPERVQALVTVASSPCFSARDEWPGIKPDVLAGFQQQLSDDFQRTVERFLALQTMGTETARQDARALKKTVLALPMPEVDVLNGGLEILKTVDLRQPLQNVSMPFLRLYGYLDGLVPRKVVPMLDKLWPHSESYIFAKAAHAPFISHPAEFCHLLVALKQRV | 3.5 ± 0.15 | 3.33 | 4.85 ± 1.8 | 12.1 ± 4.7 | 6.93 ± 1.4 | 5.93 ± 0.25 | – | 3.79 ± 0.6 | 3.66 ± 0.1 | 3.39 ± 0.45 | 5.41 ± 0.43 | 3.63 ± 0.25
MNNKGSGLTPAQALDKLDALYEQSVVALRNAIGNYITSGELPDENARKQGLFVYPSLTVTWDGSTTNPPKTRAFGRFTHAGSYTTTITRPTLFRSYLNEQLTLLYQDYGAHISVQPSQHEIPYPYVIDGSELTLDRSMSAGLTRYFPTTELAQIGDETADGIYHPTEFSPLSHFDARRVDFSLARLRHYTGTPVEHFQPFVLFTNYTRYVDEFVRWGCSQILDPDSPYIALSCAGGNWITAETEAPEEAISDLAWKKHQMPAWHLITADGQGITLVNIGVGPSNAKTICDHLAVLRPDVWLMIGHCGGLRESQAIGDYVLAHAYLRDDHVLDAVLPPDIPIPSIAEVQRALYDATKLVSGRPGEEVKQRLRTGTVVTTDDRNWELRYSASALRFNLSRAVAIDMESATIAAQGYRFRVPYGTLLCVSDKPLHGEIKLPGQANRFYEGAISEHLQIGIRAIDLLRAEGDRLHSRKLRTFNEPPFR [P0AE12] | 5.49 ± 1 | 5.31 ± 0.55 | 4.37 ± 0.083 | 10.6 ± 0.36 | 8.24 ± 1.3 | 6.19 ± 0.32 | – | 6.26 ± 1.5 | 4.76 ± 0.66 | 3.24 ± 0.42 | 6.34 ± 0.73 | 4.51 ± 0.26
MNNLPLLNDLRVFMLVARRAGFAAVAEELGVSPAFVSKRIALLEQTLNVVLLHRTTRRVTITEEGERIYEWAQRILQDVGQMMDELSDVRQVPQGMLRIISSFGFGRQVVAPALLALAKAYPQLELRFDVEDRLVDLVNEGVDLDIRIGDDIAPNLIARKLATNYRILCASPEFIAQHGAPKHLTDLSALPCLVIKERDHPFGVWQLRNKEGPHAIKVTGPLSSNHGEIVHQWCLDGQGIALRSWWDVSENIASGHLVQVLPEYYQPANVWAVYVSRLATSAKVRITVEFLRQYFAEHYPNFSLEHA | 1.82 ± 0.43 | – | 1.16 | 3.54 ± 0.1 | – | 0.535 | – | 5.43 ± 0.67 | – | 0.948 ± 0.17 | 2.24 ± 0.21 | –
MNNLPVVRSPWRIVILLLGFTFLYAPMLMLVIYSFNSSKLVTVWAGWSTRWYGELLRDDAMMSAVGLSLTIAACAATAAAILGTIAAVVLVRFGRFRGSNGFAFMITAPLVMPDVITGLSLLLLFVALAHAIGWPADRGMLTIWLAHVTFCTAYVAVVISSRLRELDRSIEEAAMDLGATPLKVFFVITLPMIMPAIISGWLLAFTLSLDDLVIASFVSGPGATTLPMLVFSSVRMGVNPEINALATLILGAVGIVGFIAWYLMARAEKQRIRDIQRARRG [P0AFL1] | – | – | – | – | > 16 | – | 10.3 | 5.96 | – | – | – | –
